According to US11407819B2, “Compositions and use of a fibrinogen binding motif present in EFB and COA for therapeutics and vaccines against Staphylococcus aureus” (priority 2013, dated 2022):
Entries after “also recorded” stand apart in the source; their conditions may differ.

Target: T1, rCoa-C binding to Fg (Homo sapiens, UniProt P02671+P02675+P02679)
T1 construct: full-length human Fibrinogen (diluted in PBS, Enzyme research); purchased Enzyme research; host or cells: Coa probe made in E. coli BL21
T1 sequence (P02671 20-629 limits assumed): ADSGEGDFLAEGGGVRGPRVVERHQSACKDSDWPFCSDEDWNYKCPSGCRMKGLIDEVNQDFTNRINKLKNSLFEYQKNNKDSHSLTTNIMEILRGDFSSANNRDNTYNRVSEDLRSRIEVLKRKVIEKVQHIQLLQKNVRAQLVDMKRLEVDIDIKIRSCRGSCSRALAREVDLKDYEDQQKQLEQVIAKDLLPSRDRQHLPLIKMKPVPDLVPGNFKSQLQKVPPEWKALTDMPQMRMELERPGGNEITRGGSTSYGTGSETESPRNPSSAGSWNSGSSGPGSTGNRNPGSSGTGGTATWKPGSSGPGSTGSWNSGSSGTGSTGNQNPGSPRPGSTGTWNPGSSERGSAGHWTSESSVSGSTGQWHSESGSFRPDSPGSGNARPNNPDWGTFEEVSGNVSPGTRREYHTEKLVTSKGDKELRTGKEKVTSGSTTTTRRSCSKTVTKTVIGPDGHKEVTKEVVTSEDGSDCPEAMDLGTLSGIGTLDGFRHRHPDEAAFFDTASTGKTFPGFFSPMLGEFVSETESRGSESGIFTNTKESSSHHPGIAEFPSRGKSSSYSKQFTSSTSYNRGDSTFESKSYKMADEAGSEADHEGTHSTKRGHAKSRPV
T1 sequence (P02675 31-491): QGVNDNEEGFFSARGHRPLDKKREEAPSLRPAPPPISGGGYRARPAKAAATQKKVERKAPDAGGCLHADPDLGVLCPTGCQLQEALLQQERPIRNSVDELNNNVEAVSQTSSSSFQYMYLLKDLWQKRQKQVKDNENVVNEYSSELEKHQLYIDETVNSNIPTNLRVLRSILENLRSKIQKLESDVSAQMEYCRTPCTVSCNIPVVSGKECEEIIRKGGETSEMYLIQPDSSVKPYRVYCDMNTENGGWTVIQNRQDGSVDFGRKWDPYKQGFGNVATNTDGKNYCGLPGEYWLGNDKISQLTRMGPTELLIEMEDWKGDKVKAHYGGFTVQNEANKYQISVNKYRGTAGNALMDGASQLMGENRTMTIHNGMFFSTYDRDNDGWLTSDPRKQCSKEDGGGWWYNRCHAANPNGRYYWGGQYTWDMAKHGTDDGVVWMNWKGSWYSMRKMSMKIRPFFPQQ
T1 sequence (P02679 27-453): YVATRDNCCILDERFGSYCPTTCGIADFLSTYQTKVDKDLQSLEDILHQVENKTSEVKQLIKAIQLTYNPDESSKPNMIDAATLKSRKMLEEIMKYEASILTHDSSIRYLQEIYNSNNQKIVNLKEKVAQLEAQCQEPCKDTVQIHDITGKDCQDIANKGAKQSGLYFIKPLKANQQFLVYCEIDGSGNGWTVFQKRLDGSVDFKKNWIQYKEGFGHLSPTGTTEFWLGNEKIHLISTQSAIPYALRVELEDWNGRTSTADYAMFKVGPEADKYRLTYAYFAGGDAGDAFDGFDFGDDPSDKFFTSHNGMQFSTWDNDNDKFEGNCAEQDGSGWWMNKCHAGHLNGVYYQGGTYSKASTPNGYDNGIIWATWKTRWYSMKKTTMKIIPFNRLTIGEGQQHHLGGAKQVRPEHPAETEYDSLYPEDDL
Assay: Competition ELISA, peptide inhibition of rCoa-C (Coa 311-636) binding to Fg
Settings: increasing concentrations of peptides; 4 nM GST fusion protein
Method: The residues in Coa-RI important for fibrinogen binding. FIG. 12A is a panel of coa-RI variant peptides were synthesized where each residue in the sequence is individually replaced with Ala (or Ser when the native a.a. is Ala). […] Wells were coated with 0.25 μg/well Fg. Labels -1, -2, -3, -4, -5, -6, -7, -8, -9, -10, -11, -12, -13, -14, -15, -16, -17, -18, -19, -20, -21, -22, -23, -24, -25, -26, -27 refer to Coa-RI-1, Coa-RI-2, Coa-RI-3, Coa-RI-4, Coa-RI-5, Coa-RI-6, Coa-RI-7, Coa-RI-8, Coa-RI-9, Coa-RI-10, Coa-RI-11, Coa-RI-12, Coa-RI-13, Coa-RI-14, Coa-RI-15, Coa-RI-16, Coa-RI-17, Coa-RI-18, Coa-RI-19, Coa-RI-20, Coa-RI-21, Coa-RI-22, Coa-RI-23, Coa-RI-24, Coa-RI-25, Coa-RI-26, Coa-RI-27, respectively. FIG. 12C is a comparison of amino acid sequence of Efb-O with Coa-RI. FIG. 12D is a Fg-binding register of tandem repeats in Coa. Bold letters denote the residues that are important for Fg binding. Binding of a fixed concentration of rCoa-C (2 nM) to immobilized Fg was determined in the presence of a fixed concentration of these peptides (50 uM) (FIG. 12B). […]
FIG. 13A is a schematic presentation of Coa peptides. […] The Fg binding activities of these peptides were then investigated in a competition ELISA where the binding of rCoa-C to Fg coated microtiter wells were determined in the presence of increasing concentrations of peptide (FIG. 13B). […]

Substance: sCoa-RI: synthetic peptide, first 27 residues of repeat region, Coa 506-532 (ETNAYNVTTHANGQVSYGARPTYKKPS)
- inhibition of rCoa-C binding to fibrinogen by overlapping Coa R peptides: some inhibitory activity; also recorded: most potent inhibitor
